The test system of series [1] is histone octamer unacetylated H3 (smFRET). The series is described as follows: single-molecule FRET. As to conditions: reference; Binding assay buffers not given in material; array DNA kept in 2 M NaCl, 10 mM TEA, 1 mM EDTA; reconstituted arrays dialysed into 1 mM MgCl2, 10 mM TEA pH 7.4.
Series [2] relates to histone octamer H3 K56Ac (smFRET). The series is described as follows: single-molecule FRET. As to conditions: DNA breathing increased by K56Ac; Binding assay buffers not given in material; array DNA kept in 2 M NaCl, 10 mM TEA, 1 mM EDTA; reconstituted arrays dialysed into 1 mM MgCl2, 10 mM TEA pH 7.4.

Substance mononucleosome DNA for smFRET showed a binding signal (fold DNA breathing (reference)) in series [1] of 1. The substance also displayed a binding signal (fold DNA breathing vs unacetylated) in series [2] of 7.

Source of the values: PMC2856916.
